Here are results for 1 substance from publication PMC3192843.

This data set concerns nsp16;nsp10 (SARS-CoV strain WHU;SARS-CoV strain WHU). Put plainly: ITC. The following applies: 5' m7GpppA cap-0.

Regarding m7GpppA-RNA, the Kd (as a rule, a measure of binding affinity in units of concentration) worked out at 1210 nM.
